Laboratory results as given in paper PMC9894935, “FMO rewires metabolism to promote longevity through tryptophan and one carbon metabolism in C. elegans” (Nature Communications, 2023).

How the values were obtained:
purified protein [1] = substrate: NC(=O)C1=CN([C@@H]2O[C@H](COP(=O)(O)OP(=O)(O)OC[C@H]3O[C@@H](n4cnc5c(N)ncnc54)[C@H](OP(=O)(O)O)[C@@H]3O)[C@@H](O)[C@H]2O)C=CC1; test: purified protein; assay type: biochemical, Caenorhabditis elegans; details: NADPH varied 10 µM to 1.5 mM, excess FAD, 25 mM sodium phosphate pH 8.5, 30 °C, varied: cofactor
purified protein [2] = substrate: N[C@@H](Cc1c[nH]c2ccccc12)C(=O)O; test: purified protein; assay type: biochemical, Caenorhabditis elegans; details: 0.5 mM NADPH, excess FAD, 0.04 µM FMO-2, 25 mM sodium phosphate pH 8.5, 0.5 mM DETAPAC, 30 °C

B1: FMO-2 (CeFMO-2) (Caenorhabditis elegans) (protein)
chain: MGNKRVAVIGAGASGLPSIRHGLLYGFDVTCFEASDDIGGLWRYKSHETNESSVMKTTVINTSKEMTAYSDFTPQENLANFMHNNEMLNYFKSYAEHHGLMKHIKLRHRVLNIERSKNYDNDGTWKVIYQTPEEKTLEEIFDGVLVCSGHHAIPHWPKPFPGQNEFKGRIVHSHDYKDHKGYEDKVVVVVGIGNSGIDVAVEQSRIAKQVYLVTRRGTWLIPKLETRGLPFDIIMNTRFFSLYKLFPQAMLNSLVEYRINQRIDHDLYGLKPAHRVFSAHPSLNDELPNRIANGTVRIKPNIKKFDGYAIHFEDGTIVPHVDEVVMSTGFSFEFNLIEHGKLVPVSENEVDLFKYMFPVATSDHNSLCIIGLIQPFGSIMPVSEQQARVFFANMVSGNNLIPKKSQMSEDVLNKKEAMAQQFVKSRRHTIQVDYIPYMDELAELIGCQVPLLRTLFTDPVLGLRLFFGPNAGYCYRLAGPHTWNGARNAILTIDQRVRMATTTKPEPTNYTVPLVISSIILLLVIYFVM
notes: purified FMO-2 protein purchased from GenScript; assayed with excess FAD
Q: For B1, which Km (purified protein [1]) is on record?
A: 2500 ± 1240 µM

Q: What about the kcat (purified protein [1]) of the same protein?
A: 264 ± 98 s⁻¹

Q: And the Km (purified protein [2])?
A: 880 ± 430 µM

Q: And the kcat (purified protein [2])?
A: 9.7 ± 1.5 s⁻¹
